From article PMC2686087 come the findings set out here.

Test [1] deals with CaV2.2/α2δ-2 calcium channel coexpressed with wild-type β2a (UniProt Q05152).
The target of test [2] is CaV2.2/α2δ-2 calcium channel coexpressed with β2a-ΔvHOOK (UniProt Q05152).
In test [3] the target is CaV2.2/α2δ-2 calcium channel coexpressed with wild-type β2a (UniProt Q05152). This is another data set of the same source.
The target of test [4] is CaV2.2/α2δ-2 calcium channel coexpressed with β2a-SH3 (1–135) and β2a-GK (226–442) (UniProt Q05152).

Take “Gβγ (from UniProt P62873 1-340; P59768 1-71) (complex)”: in test [1], the dissociation rate of Gβγ at +120 mV (from τdissoc) worked out at 46.9 s⁻¹ and the time constant for rebinding of Gβγ at −100 mV (reinhibition after the prepulse) was determined as 248 ms. Moreover, in test [2], the dissociation rate of Gβγ at +120 mV (from τdissoc) turned out to be 29.7 s⁻¹ and the time constant for rebinding of Gβγ at −100 mV (reinhibition after the prepulse) amounted to 296 ms. In test [3], the basal facilitation (P2/P1) ratio at +10 mV without agonist stood at 1.43. In addition, in test [4], the basal facilitation (P2/P1) of peak IBa at +10 mV in the absence of agonist is 2.61 and the time constant for the removal of tonic inhibition (τdissoc) at +120 mV came out at 29.1 ms.
